Where a chain is given by its changes, count along the chain named.
B1: DH827 (human IgG1) (antibody, V domains shown)
VH: EVQLVESGGGVVQPGRSLRLSCAASGFTFSNCAMHWVRQAPGKGLEWVAVISYHGSNKYYADYVKGRFTISRDNSKSTVYLQMNSPRAEDTAVYYCAKEGGAPSGWALDYWGQGTLVTVSS
VL: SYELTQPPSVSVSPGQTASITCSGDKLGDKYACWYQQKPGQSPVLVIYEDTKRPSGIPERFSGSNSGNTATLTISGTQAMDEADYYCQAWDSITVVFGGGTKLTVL
notes: also called human DH827
B2: RhDH827 IgG1 (antibody, V domains shown)
VH: EVQLVESGGGLVQPGGSLRLSCAASGFTFSNCAMHWVRQAPGKGLEWVAVISYHGSNKYYADYVKGRFTISRDNSKNMLYLQMNNLKLEDTAVYYCAREGGAPSGWALDYWGQGVLVTVSS
VL: SYELTQSPSVSVSPGQPASITCSGDKLGDKYACWYQQKPGQVPVLVIYEDTKRPSGIPERFSGSNSGNTATLTISGVEAGDEADYYCQAWDSITHVVFGGGTRLTVL
notes: also called rhesusized DH827
B3: 7B2 (antibody, V domains shown)
VH: QVQLVQSGGGVFKPGGSLRLSCEASGFTFTEYYMTWVRQAPGKGLEWLAYISKNGEYSKYSPSSNGRFTISRDNAKNSVFLQLDRLSADDTAVYYCARADGLTYFSELLQYIFDLWGQGARVTVSS
VL: ETTLTQSPDSLAVSPGERATIHCKSSQTLLYSSNNRHSIAWYQQRPGQPPKLLLYWASMRLSGVPDRFSGSGSGTDFTLTINNLQAEDVAIYYCHQYSSHPPTFGHGTRVELR
B4: Rh7B2 IgG1 (antibody, V domains shown)
VH: EVQLVESGGGLVQPGGSLRLSCAASGFTFTEYYMSWVRQAPGKGLEWVSYISKNGEYSYYADSVKGRFTISRDNAKNSLSLQMSSLRAEDTAVYYCTRADGLTYFSELLQYIFDLWGQGVLVTVSS
VL: DIVMTQSPDSLAVSLGERVTINCKSSQTLLYSSNNRHSIAWYQQKPGQAPKLLIYWASMRLSGVPNRFSGSGSGTDFTLTISGLQAEDVAVYYCHQYSSHPPTFGQGTKVEIK
notes: also called rhesusized 7B2
B5: rhesus macaque FcγRIIIa-1 (I158) (receptor)
chain: EDLPKAVVFLEPQWYRVLEKDSVTLKCQGAYSPEDNSTRWFHNESLISSQTSSYFIAAARVNNSGEYRCQTSLSTLSDPVQLEVHIGWLLLQAPRWVFKEEESIHLRCHSWKNTLLHKVTYLQNGKGRKYFHQNSDFYIPKATLKDSGSYFCRGLIGSKNVSSETVNITITQDLAVSSISSFFPPG
B6: rhesus macaque FcγRIIIa-3 (V158) (receptor)
chain: B5 chain with I156V
modifications: N-glycosylated soluble ectodomain; limits from the UniProt extracellular domain. Mature 158 = precursor 176 (offset 18). Only V158 (against I158 in variant 1) is printed; other allelic differences of
B7: human FcγRIIa (R131) (receptor)
chain: QAAAPPKAVLKLEPPWINVLQEDSVTLTCQGARSPESDSIQWFHNGNLIPTHTQPSYRFKANNNDSGEYTCQTGQTSLSDPVHLTVLSEWLVLQTPHLEFQEGETIMLRCHSWKDKPLVKVTFFQNGKSQKFSRLDPTFSIPQANHSHSGDYHCTGNIGYTLFSSKPVTITVQVPSMGSSSPMG
B8: RhDH677.3 IgG1 (antibody, V domains shown)
VH: QVQLVQSGAEVKKPGASVKLSCKASGYTFTSYDINWVRQAPGQGLEWMGWMNPKTGNTGYAQKFQGRVTMTRDTSTSTAYMELSSLRSEDTAVYYCATYRIIAAVGYRYFQYWGQGALVTVSS
VL: AIQMTQSPSSLSASVGDKVTITCRASQGFGNYLAWYQQKPGKVPKLLIYAATTLQSEVPSRFSGSGSGTDFTLTISSLQPEDVATYYCQKYNSAPFTFGQGTRLEIK
notes: also called rhesusized DH677.3

Legend:
[1] = molecular target: T1, Env of HIV-1 IMC 1086.C on infected CEM.NKR_(CCR5) cells (HIV-1 subtype C 1086.C, UniProt C6G099, strain); assay: flow cytometry on cells; details: one partner purified
T1 construct: also called HIV-1 1086; source: HIV-1 IMC-infected CEM.NKR_(CCR5) cells, on the cell surface

[2] = molecular target: T2, Env of HIV-1 IMC CH505 on infected CEM.NKR_(CCR5) cells (HIV-1 subtype C CH505 (703010505), strain); assay: flow cytometry on cells; details: one partner purified
T2 construct: source: HIV-1 IMC-infected CEM.NKR_(CCR5) cells, on the cell surface

[3] = molecular target: T3, Env of HIV-1 IMC SF162 on infected CEM.NKR_(CCR5) cells (HIV-1 subtype B SF162, UniProt P19550, strain); assay: flow cytometry on cells; details: one partner purified
T3 construct: source: HIV-1 IMC-infected CEM.NKR_(CCR5) cells, on the cell surface

[4] = molecular target: T4, Env of SHIV SF162.P3 on infected A66 cells (SHIV SF162.P3 Env (stand-in: parental …, UniProt P19550, strain)); assay: flow cytometry on cells; details: one partner purified
T4 construct: source: SHIV-infected A66 cells, on the cell surface

[5] = molecular target: synthetic gp41 peptide (residues 596-606) with C-terminal amidation (HIV-1 subtype B BaL, UniProt Q6TAP7)
[6] = molecular target: RhDH677.3 IgG1 (rhesusized variant of human DH677.3) (rhesus macaque (Macaca mulatta)); assay: SPR; imaging SPR (IBIS MX96); IgG immobilised on a carboxymethyldextran sensor (CMD200M) by carbodiimide chemistry with a Continuous Flow Microspotter, printed at 300 and 150 nM; soluble receptor as analyte from 20 uM, 1:3 over 8 points; 5 min association and 5 min dissociation; equilibrium KD (Scrubber 2); details: both partners purified
[7] = molecular target: Rh7B2 IgG1 (rhesusized variant of human 7B2) (rhesus macaque (Macaca mulatta)); assay: as above; details: both partners purified
[8] = molecular target: RhDH827 IgG1 (rhesusized variant of human DH827) (rhesus macaque (Macaca mulatta)); assay: as above; details: both partners purified
[9] = molecular target: RM JR4 IgG1 (rhesus macaque mAb, C1C2 Cluster A region) (rhesus macaque (Macaca mulatta)); assay: as above; details: both partners purified
[10] = molecular target: T5, monomeric full length single chain (FLSC), a covalent dimer of gp120BaL and CD4 (HIV-1 subtype B BaL (gp120); Homo …, UniProt Q6TAP7;P01730); assay: SPR; Biacore 3000; IgG immobilized on a protein A chip, antigen flowed over (FLSC 6.25-200 nM; gp41 peptide 6.4-25.6 μM; V2 peptide 12.5-50 μM); 10 mM HEPES pH 7.5, 150 mM NaCl, 0.05% Tween 20, 25 °C; 1:1 Langmuir model; details: both partners purified
T5 construct: gp120 of HIV-1 BaL; CD4, domain 1 and 2

RM JR4 IgG1 (rhesus macaque mAb, C1C2 Cluster A region) (rhesus macaque (Macaca mulatta)), sequence (heavy, as listed by the source, chain 1 of 2): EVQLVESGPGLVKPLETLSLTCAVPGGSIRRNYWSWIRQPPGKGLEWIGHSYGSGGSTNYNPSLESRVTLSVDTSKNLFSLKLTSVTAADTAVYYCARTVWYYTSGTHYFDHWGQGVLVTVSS
RM JR4 IgG1 (rhesus macaque mAb, C1C2 Cluster A region) (rhesus macaque (Macaca mulatta)), sequence (light, as listed by the source, chain 2 of 2): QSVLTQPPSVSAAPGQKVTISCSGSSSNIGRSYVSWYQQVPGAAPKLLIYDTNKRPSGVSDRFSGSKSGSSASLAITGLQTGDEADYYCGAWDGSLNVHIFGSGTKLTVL

Binder | binding result [1] | binding result [2] | binding result [3] | binding result [4] | binding result [5] | Kd [6] [nM] | Kd [7] [nM] | Kd [8] [nM] | Kd [9] [nM] | fold change of KD against human DH677.3 [10] [fold]
B1 | binds | binds | binds | – | – | – | – | – | – | –
B2 | binds | binds | binds | binds | – | – | – | – | – | –
B3 | – | – | – | – | binds | – | – | – | – | –
B4 | binds | binds | binds | binds | – | – | – | – | – | –
B5 | – | – | – | – | – | 1100 | 1000 | 1300 | 1100 | –
B6 | – | – | – | – | – | 1500 | 1600 | 1900 | 1600 | –
B7 | – | – | – | – | – | 4600 | 2900 | 4600 | 2000 | –
B8 | – | binds | binds | binds | – | – | – | – | – | ~8

Source: article PMC8770954 (Frontiers in Immunology, 2021)
